Laboratory results reported in patent publication US20230057263A1 (CYTOMX THERAPEUTICS, published 2023).
No end group written: not given here. *: point of attachment. Biotin = O=C1N[C@H]2[C@H](CS[C@H]2CCCCC(=O)*)N1; code X = not defined here

Columns and labels:
B X TPYKVSISGTTVILT = biological target: T1, B X TPYKVSISGTTVILT (reading uncertain); assay: Luminex bead assay, 1 ug/ml antibody [Cont.]
T1 construct: row 14 of the chart; also called biotinylated 15-mer, residues 13-27
T1 peptide: {Biotin-code X}-TPYKVSISGTTVILT
Experimental: (§1) A set of experiments was performed to map the epitope recognized by the anti-CD3ε antibodies. In these experiments, the anti-CD3ε antibodies were assessed for binding to a collection of overlapping 15-mer peptides spanning amino acids 1-27 of human CD3ε protein using a Luminex bead assay. Control CD3 proteins, control peptides, or the test peptides were immobilized on Luminex beads and incubated with a panel of anti-CD3 antibodies. Binding of the anti-CD3 antibodies to the peptide/protein immobilized on the Luminex bead was detected by R-Phycoerythrin conjugated secondary antibody.
(§2) Recombinant CD3 proteins (human CD3d/e heterodimer and cynomolgus CD3-epsilon (Sinobiological)) and control peptides (#p1, #p2, and #p3) were conjugated to Luminex beads using standard EDC/Sulfo-NHS chemistry. The 15-mer test peptides were synthesized as biotinylated peptides at JPT Peptide Technologies Gmbh and were immobilized on streptavidin-conjugated Luminex beads that were made using standard EDC/Sulfo-NHS chemistry and streptavidin (Invitrogen Cat. No. 434301 lot 1626028A). The Luminex beads with immobilized peptides or reagents were incubated with 50 ul of a panel of anti-CD3 antibodies (1 ug/ml) for one hour at room temperature, washed two times, incubated with mixture of anti-human and anti-mouse IgG-RPE (Jackson Immunoresearch 109-116-097 and Southern Biotech 1030-09, respectively) for 30 mins at RT, washed three times, and analyzed in the Luminex instrument to assess the level of bound anti-CD3 antibodies.

B X QDGNEEMGGIAQTP = biological target: T2, B X QDGNEEMGGIAQTP (reading uncertain); assay: Luminex bead assay, 1 ug/ml antibody [Cont.]
T2 construct: row 25 of the chart; 14 residues; also called alanine-scan peptide T11A
T2 peptide: {Biotin-code X}-QDGNEEMGGIAQTP
Experimental: as §1, §2

B X QTPYKVSISGTTVIL [1] = biological target: T3, B X QTPYKVSISGTTVIL (reading uncertain); assay: Luminex bead assay, 1 ug/ml antibody [Cont.]
T3 construct: row 13 of the chart; also called biotinylated 15-mer, residues 12-26
T3 peptide: {Biotin-code X}-QTPYKVSISGTTVIL
Experimental: as §1, §2

B X QAGNEEMGGITQTP = biological target: T4, B X QAGNEEMGGITQTP (reading uncertain); assay: Luminex bead assay, 1 ug/ml antibody [Cont.]
T4 construct: row 16 of the chart; also called alanine-scan peptide D2A
T4 peptide: {Biotin-code X}-QAGNEEMGGITQTP
Experimental: as §1, §2

B X QDGNEEAGGITQTP = biological target: T5, B X QDGNEEAGGITQTP (reading uncertain); assay: Luminex bead assay, 1 ug/ml antibody [Cont.]
T5 construct: row 21 of the chart; 14 residues; also called alanine-scan peptide M7A
T5 peptide: {Biotin-code X}-QDGNEEAGGITQTP
Experimental: as §1, §2

B X QDGNEEMAGITQTP = biological target: T6, B X QDGNEEMAGITQTP (reading uncertain); assay: Luminex bead assay, 1 ug/ml antibody [Cont.]
T6 construct: row 22 of the chart; 14 residues; also called alanine-scan peptide G8A
T6 peptide: {Biotin-code X}-QDGNEEMAGITQTP
Experimental: as §1, §2

B X QDGNEAMGGITQTP = biological target: T7, B X QDGNEAMGGITQTP (reading uncertain); assay: Luminex bead assay, 1 ug/ml antibody [Cont.]
T7 construct: row 20 of the chart; 14 residues; also called alanine-scan peptide E6A
T7 peptide: {Biotin-code X}-QDGNEAMGGITQTP
Experimental: as §1, §2

B X QDGNEEMGGATQTP = biological target: T8, B X QDGNEEMGGATQTP (reading uncertain); assay: Luminex bead assay, 1 ug/ml antibody [Cont.]
T8 construct: row 24 of the chart; 14 residues; also called alanine-scan peptide I10A
T8 peptide: {Biotin-code X}-QDGNEEMGGATQTP
Experimental: as §1, §2

B X QDGAEEMGGITQTP = biological target: T9, B X QDGAEEMGGITQTP (reading uncertain); assay: Luminex bead assay [Cont.]
T9 construct: row 18 of the chart; 14 residues; also called alanine-scan peptide N4A
T9 peptide: {Biotin-code X}-QDGAEEMGGITQTP
Experimental: as §1, §2

B X GITQTPYKVSISGTT = biological target: T10, B X GITQTPYKVSISGTT (reading uncertain); assay: Luminex bead assay [Cont.]
T10 construct: row 10 of the chart; also called biotinylated 15-mer, residues 9-23
T10 peptide: {Biotin-code X}-GITQTPYKVSISGTT
Experimental: as §1, §2

B X EEMGGITQTPYKVSI = biological target: T11, B X EEMGGITQTPYKVSI (reading uncertain); assay: Luminex bead assay [Cont.]
T11 construct: row 6 of the chart; also called biotinylated 15-mer, residues 5-19
T11 peptide: {Biotin-code X}-EEMGGITQTPYKVSI
Experimental: as §1, §2

BSA alone = biological target: T12, BSA alone (bovine, UniProt P02769); assay: Luminex bead assay [Cont.]
T12 construct: carrier protein without peptide
T12 sequence (P02769 25-607 limits assumed): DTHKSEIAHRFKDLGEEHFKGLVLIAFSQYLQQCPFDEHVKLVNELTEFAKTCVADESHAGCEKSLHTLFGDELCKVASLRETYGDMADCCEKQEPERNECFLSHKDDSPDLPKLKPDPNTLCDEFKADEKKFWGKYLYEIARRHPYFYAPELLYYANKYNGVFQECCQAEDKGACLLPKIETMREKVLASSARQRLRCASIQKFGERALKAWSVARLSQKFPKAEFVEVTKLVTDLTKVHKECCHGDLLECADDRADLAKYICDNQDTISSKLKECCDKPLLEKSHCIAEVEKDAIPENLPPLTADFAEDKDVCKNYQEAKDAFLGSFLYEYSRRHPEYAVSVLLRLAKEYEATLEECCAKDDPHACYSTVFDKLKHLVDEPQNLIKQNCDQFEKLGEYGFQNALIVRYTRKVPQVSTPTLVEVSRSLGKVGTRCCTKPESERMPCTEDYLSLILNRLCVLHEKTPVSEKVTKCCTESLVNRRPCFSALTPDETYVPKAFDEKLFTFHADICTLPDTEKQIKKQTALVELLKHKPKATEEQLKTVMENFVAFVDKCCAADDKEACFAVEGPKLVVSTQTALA
Experimental: as §1, §2

B X QTPYKVSISGTTVIL [2] = biological target: T3, B X QTPYKVSISGTTVIL; assay: Luminex bead assay [Cont.]
Experimental: as §1, §2

B X ITQTPYKVSISGTTV = biological target: T13, B X ITQTPYKVSISGTTV (reading uncertain); assay: Luminex bead assay [Cont.]
T13 construct: row 11 of the chart; also called biotinylated 15-mer, residues 10-24
T13 peptide: {Biotin-code X}-ITQTPYKVSISGTTV
Experimental: as §1, §2

B X GGITQTPYKVSISGT = biological target: T14, B X GGITQTPYKVSISGT (reading uncertain); assay: Luminex bead assay [Cont.]
T14 construct: row 9 of the chart; also called biotinylated 15-mer, residues 8-22
T14 peptide: {Biotin-code X}-GGITQTPYKVSISGT
Experimental: as §1, §2

B X GNEEMGGITQTPYKV = biological target: T15, B X GNEEMGGITQTPYKV (reading uncertain); assay: Luminex bead assay [Cont.]
T15 construct: row 4 of the chart; also called biotinylated 15-mer, residues 3-17
T15 peptide: {Biotin-code X}-GNEEMGGITQTPYKV
Experimental: as §1, §2

human CD3 epsilon (CD3ε) = biological target: T16, human CD3 epsilon (CD3ε) (human, UniProt P07766 23-207); assay: flow cytometry on human T cells
T16 construct: Present on donor human T cells as part of the TCR-CD3 complex; also called CD3ε on human T cells
Experimental: (§3) In these experiments, human or cynomolgus T cells were incubated with an anti-CD3ε antibody and binding was assessed by flow cytometry.
(§4) Briefly, donor T cells from either human or cynomolgus donors were resuspended in FACS buffer containing 0.1% sodium azide and aliquoted in 100 μL volumes. For incubation, 100 μL aliquots of donor T cells were mixed with 50 μL of antibodies diluted in FACS buffer containing 0.1% sodium azide. The cells were then washed twice with FACS buffer containing sodium azide. The bound antibody was detected by incubating cells for 60 minutes with a 1:200 dilution of SAV-RPE (Invitrogen Cat No. SA10044, Lot. 1542820A) or 1:100 dilution of goat-anti-Mouse Fcγ-RPE (Jackson Cat. No. 115-116-071, Lot. 108668, diluted in 0.2% goat serum). The cells were washed, fixed, and analyzed with an Accuri Flow Cytometer.
(§5) Treatment with OKT3, SP34-2, and diL2K antibodies were used as positive controls for T cell binding. […] Treatment with OKT3, SP34-2, and diL2K antibodies were used as controls for T cell binding with only SP34-2 binding to cynomolgus T cells, as expected.

cynomolgus CD3-epsilon = biological target: T17, cynomolgus CD3-epsilon (cynomolgus, UniProt Q95LI5 22-198); assay: flow cytometry on cynomolgus T cells
T17 construct: whole, on cells; also called CD3ε on cynomolgus T cells / PBMCs
T17 sequence (Q95LI5 22-198): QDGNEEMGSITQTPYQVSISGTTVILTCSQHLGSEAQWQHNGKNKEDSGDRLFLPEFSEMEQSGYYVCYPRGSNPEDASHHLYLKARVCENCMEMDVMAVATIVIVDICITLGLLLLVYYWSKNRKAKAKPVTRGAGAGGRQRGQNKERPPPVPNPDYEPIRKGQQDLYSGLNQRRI
Experimental: as §3, §4, §5

B1: 6d59 (antibody, V domains shown)
VH: QVHLVESGGGVVQPGRSLRLSCAASGFKFRSYGMHWVRQAPGKGLEWVAIIWYDGSKRYYADSVKGRFTISRDNSKNTLYLQMSSLRAEDTAVYYCARDLITGTTDYWGQGTLVTVSS
VL: DVVMTQSPLSLPVTLGQPASISCRSSRSLVYSDGNTHLIWFQQRPGQSPRRLIYRVSNRVSGVPDRFSGSGSGTDFTLKISRVEAEDVGVYYCLQGAHWPYTFGQGTKLEIKR
notes: also called 6d59.1; VCD3-6d59.1
Luminex signal (B X TPYKVSISGTTVILT): 31 | Luminex signal (B X QDGNEEMGGIAQTP): 2910 | Luminex signal (B X QTPYKVSISGTTVIL [1]): 31.5 | Luminex signal (B X QAGNEEMGGITQTP): 45 | Luminex signal (B X QDGNEEAGGITQTP): 2580 | Luminex signal (B X QDGNEEMAGITQTP): 2510 | Luminex signal (B X QDGNEAMGGITQTP): 1480 | Luminex signal (B X QDGNEEMGGATQTP): 2630 | binding result (B X QDGAEEMGGITQTP): no binding (tested: 1 ug/ml) | binding result (B X GITQTPYKVSISGTT): no binding (tested: 1 ug/ml) | binding result (B X EEMGGITQTPYKVSI): no binding (tested: 1 ug/ml) | binding result (BSA alone): no binding (tested: 1 ug/ml) | binding result (B X QTPYKVSISGTTVIL [2]): no binding (tested: 1 ug/ml) | binding result (B X ITQTPYKVSISGTTV): no binding (tested: 1 ug/ml) | binding result (B X GGITQTPYKVSISGT): no binding (tested: 1 ug/ml) | binding result (B X GNEEMGGITQTPYKV): no binding (tested: 1 ug/ml) | EC50 (read off the curve) (human CD3 epsilon (CD3ε)): ~0.06 nM | EC50 (read off the curve) (cynomolgus CD3-epsilon): ~0.07 nM
